Assay: Normalized fluorescence from retinal vasculature following IV injection of fluorescent tracer agents (renal clearance)
Conditions: period of 15 min after IV injection, FIG. 12A
Method: Normalized fluorescence from retinal vasculature following sequential IV FITC-inulin (green) and Rhod-Dex (500 kD, red) using Phoenix Research Systems Micron imaging may be obtained. Traces synchronized to tail-vein injection (T=0 min). […] Inulin clearance based on traces of normalized fluorescence and previous calibration of Inulin/Rhod-Dex ratio in WT mouse whole blood (insert). Dashed black lines=exponential and linear (insert) curve fits to inulin concentration.
As an example, AK-Fluor®, a fluorescein-based substance, may be used as a first tracer agent that is substantially cleared by healthy renal function and emits a first fluorescent light when excited by a first excitation light. […] In some examples, a AK-Fluor® of 10^−7 g/ml is injected into the patient during an iGFR procedure. […] As shown, in addition to recording the fluorescence signals representing the fluorescent intensities of a first tracer agent and a second tracer agent, a decay rate of the first tracer agent may also be fitted to a first exponential order. […] As another example, FITC-inulin may also be used as a first tracer agent that is substantially cleared by healthy renal function and emits a first fluorescent light when excited by a first excitation light.

Substance: FITC-inulin
- fluorescence of tracer agent after injection (clearance by healthy renal function): decrease over a period of 15 min after injection
